Numbered stars: 1 amine (or outer) side, 2 acyl side, 3 side chain; on linkers, the order of the positions; unused ones are H or OH. Bridge positions count the residues as written; N and C are the ends. Ends that are not written are not given here. Phenylene(1,4-NHCOCH2)2 = O=C(C[*:1])Nc1ccc(NC(=O)C[*:2])cc1
Assays:
MDM2 = target: T1, MDM2 (Homo sapiens, UniProt Q00987); test: Naive Library Presenter Screening (phage, NGS), MDM2; format: binding; conditions: MDM2 clusters (C82, C85); for interaction data, BLANK: Blank = Media only; for interaction data at Target Concentration 10: target concentration 10 nM; for interaction data at Target Concentration 30: target concentration 30 nM; for interaction data at Target Concentration 100: target concentration 100 nM; for interaction data at Target Concentration 300: target concentration 300 nM; for interaction data at Target Concentration 1000: target concentration 1000 nM
T1 construct: made in house
T1 sequence (Q00987 25-109): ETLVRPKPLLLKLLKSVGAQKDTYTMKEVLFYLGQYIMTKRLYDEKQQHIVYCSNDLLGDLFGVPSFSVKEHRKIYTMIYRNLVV

CHIP = target: T2, CHIP (Homo sapiens, UniProt Q9UNE7); test: Naive Library Presenter Screening (phage, NGS), CHIP; format: binding; conditions: for interaction data, BLANK: Blank = Media only
T2 construct: N-term truncated CHIP (also known as STUB1, Uniprot ID: Q9UNE7, residues 23-303); made in house; host or cells: E. coli BL21 CodonPlus
T2 sequence (Q9UNE7 23-303): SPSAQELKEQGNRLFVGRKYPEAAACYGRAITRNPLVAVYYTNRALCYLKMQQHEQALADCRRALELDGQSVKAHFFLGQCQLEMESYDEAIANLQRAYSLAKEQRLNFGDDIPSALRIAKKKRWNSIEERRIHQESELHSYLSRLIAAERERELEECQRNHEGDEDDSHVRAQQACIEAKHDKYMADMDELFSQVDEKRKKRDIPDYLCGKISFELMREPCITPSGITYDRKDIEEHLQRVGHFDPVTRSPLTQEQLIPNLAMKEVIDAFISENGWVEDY
Procedure: To conduct phage library screening, previously described procedures were utilized in accordance with the present disclosure.
Next-generation sequencing was performed as described in accordance with the present disclosure.
Hit ID and Clustering is performed according to a described procedure in accordance with the present disclosure.

[1] = CHIP clusters (C83, C84), first column
[2] = CHIP clusters (C83, C84), second column
[3] = CHIP clusters (C83, C84), target concentration 10 nM
[4] = CHIP clusters (C83, C84), target concentration 30 nM
[5] = CHIP clusters (C83, C84), target concentration 100 nM
[6] = CHIP clusters (C83, C84), target concentration 300 nM
[7] = CHIP clusters (C83, C84), target concentration 1000 nM, first column
[8] = CHIP clusters (C83, C84), target concentration 1000 nM, second column
[9] = CHIP target concentration 10 nM
[10] = CHIP target concentration 30 nM
[11] = CHIP target concentration 100 nM
[12] = CHIP target concentration 300 nM
[13] = CHIP target concentration 1000 nM, first column
[14] = CHIP target concentration 1000 nM, second column

| Sequence | interaction data, BLANK (MDM2; first column) | interaction data, BLANK (MDM2; second column) | interaction data at Target Concentration 10 (MDM2) | interaction data at Target Concentration 30 (MDM2) | interaction data at Target Concentration 100 (MDM2) | interaction data at Target Concentration 300 (MDM2) | interaction data at Target Concentration 1000 (MDM2; first column) | interaction data at Target Concentration 1000 (MDM2; second column) | interaction data, BLANK (CHIP; [1]) | interaction data, BLANK (CHIP; [2]) | interaction data at Target Concentration 10 (CHIP; [3]) | interaction data at Target Concentration 30 (CHIP; [4]) | interaction data at Target Concentration 100 (CHIP; [5]) | interaction data at Target Concentration 300 (CHIP; [6]) | interaction data at Target Concentration 1000 (CHIP; [7]) | interaction data at Target Concentration 1000 (CHIP; [8]) | also measured |
| --- | --- | --- | --- | --- | --- | --- | --- | --- | --- | --- | --- | --- | --- | --- | --- | --- | --- |
| DPATESCEDAAFWCHWI (DPATESCEDAAFWCHWI-NH2; linker 7-14 via Phenylene(1,4-NHCOCH2)2 (inferred)) | 0 | 0 | 0 | 0 | 30 | 30 | 30 | 70 |  |  |  |  |  |  |  |  |  |
| DPAVTECFQAAWRCMVM (linker 7-14 via Phenylene(1,4-NHCOCH2)2 (inferred); not fully specified (C-terminus)) | 0 | 0 | 0 | 77 | 184 | 276 | 269 | 268 |  |  |  |  |  |  |  |  |  |
| DPAMSNCFMAAWECLIQ (linker 7-14 via Phenylene(1,4-NHCOCH2)2 (inferred); not fully specified (C-terminus)) | 0 | 0 | 49 | 104 | 206 | 192 | 185 | 176 |  |  |  |  |  |  |  |  |  |
| DPAYTQCSDAAFMCWWW (linker 7-14 via Phenylene(1,4-NHCOCH2)2 (inferred)) | 0 | 0 | 0 | 19 | 32 | 48 | 65 | 62 |  |  |  |  |  |  |  |  |  |
| DPASQDCFSAAWQCLQT (DPASQDCFSAAWQCLQT-NH2; linker 7-14 via Phenylene(1,4-NHCOCH2)2 (inferred)) | 0 | 0 | 0 | 31 | 138 | 165 | 94 | 231 |  |  |  |  |  |  |  |  |  |
| PCYSAWITCES (linker 2-9 via Phenylene(1,4-NHCOCH2)2 (inferred)) |  |  |  |  |  |  |  |  |  |  |  |  |  |  |  |  | interaction data at Target Concentration 10 (CHIP; [9]): 0; interaction data at Target Concentration 30 (CHIP; [10]): 134; interaction data at Target Concentration 100 (CHIP; [11]): 286; interaction data at Target Concentration 300 (CHIP; [12]): 457; interaction data at Target Concentration 1000 (CHIP; [13]): 563; interaction data at Target Concentration 1000 (CHIP; [14]): 538 |
| DPAVRWCAAAAAICMVD (linker 7-14 via Phenylene(1,4-NHCOCH2)2 (inferred); not fully specified (C-terminus)) |  |  |  |  |  |  |  |  | 0 | 0 | 0 | 0 | 0 | 21 | 16 | 22 |  |
| DPAQYNCYFAANICTVD (DPAQYNCYFAANICTVD-NH2; linker 7-14 via Phenylene(1,4-NHCOCH2)2 (inferred)) |  |  |  |  |  |  |  |  | 0 | 0 | 0 | 0 | 0 | 48 | 79 | 17 |  |
| DPAVHNCSQAASICDVD (linker 7-14 via Phenylene(1,4-NHCOCH2)2 (inferred); not fully specified (C-terminus)) |  |  |  |  |  |  |  |  | 0 | 0 | 0 | 0 | 0 | 22 | 9 | 39 |  |
| DPAFEVCQFAAATCSSN (linker 7-14 via Phenylene(1,4-NHCOCH2)2 (inferred)) |  |  |  |  |  |  |  |  | 0 | 0 | 0 | 0 | 8 | 10 | 6 | 30 |  |
| DPAQDNCHYAAHICMVD (DPAQDNCHYAAHICMVD-NH2; linker 7-14 via Phenylene(1,4-NHCOCH2)2 (inferred)) |  |  |  |  |  |  |  |  | 0 | 0 | 0 | 0 | 0 | 47 | 25 | 57 |  |
| ICYNAWLECA (linker 2-9 via Phenylene(1,4-NHCOCH2)2 (inferred)) |  |  |  |  |  |  |  |  |  |  |  |  |  |  |  |  | interaction data at Target Concentration 10 (CHIP; [9]): 0; interaction data at Target Concentration 30 (CHIP; [10]): 1; interaction data at Target Concentration 100 (CHIP; [11]): 5; interaction data at Target Concentration 300 (CHIP; [12]): 7; interaction data at Target Concentration 1000 (CHIP; [13]): 11; interaction data at Target Concentration 1000 (CHIP; [14]): 9 |

The next lines start with results.

| interaction data, BLANK (MDM2; first column) | interaction data, BLANK (MDM2; second column) | interaction data at Target Concentration 10 (MDM2) | interaction data at Target Concentration 30 (MDM2) | interaction data at Target Concentration 100 (MDM2) | interaction data at Target Concentration 300 (MDM2) | interaction data at Target Concentration 1000 (MDM2; first column) | interaction data at Target Concentration 1000 (MDM2; second column) | interaction data, BLANK (CHIP; [1]) | interaction data, BLANK (CHIP; [2]) | interaction data at Target Concentration 10 (CHIP; [3]) | interaction data at Target Concentration 30 (CHIP; [4]) | interaction data at Target Concentration 100 (CHIP; [5]) | interaction data at Target Concentration 300 (CHIP; [6]) | interaction data at Target Concentration 1000 (CHIP; [7]) | interaction data at Target Concentration 1000 (CHIP; [8]) | Sequence | also measured |
| --- | --- | --- | --- | --- | --- | --- | --- | --- | --- | --- | --- | --- | --- | --- | --- | --- | --- |
| 0 | 0 | 0 | 19 | 102 | 165 | 124 | 209 |  |  |  |  |  |  |  |  | DPASADCFNAAWDCMWI (DPASADCFNAAWDCMWI-NH2; linker 7-14 via Phenylene(1,4-NHCOCH2)2 (inferred)) |  |
| 0 | 0 | 0 | 23 | 158 | 230 | 135 |  |  |  |  |  |  |  |  |  | DPAERNCFTAAWQCMVW (linker 7-14 via Phenylene(1,4-NHCOCH2)2 (inferred)) |  |
|  |  |  |  |  |  |  |  | 0 | 0 | 0 | 0 | 4 | 13 | 31 | 76 | DPAFDRCQWAAALCMMN (linker 7-14 via Phenylene(1,4-NHCOCH2)2 (inferred)) |  |
|  |  |  |  |  |  |  |  | 0 | 0 | 0 | 0 | 0 | 31 | 28 | 27 | DPAINMCYRAAQICDVD (linker 7-14 via Phenylene(1,4-NHCOCH2)2 (inferred)) |  |
|  |  |  |  |  |  |  |  | 0 | 0 | 0 | 0 | 0 | 14 | 34 | 75 | DPALWNCQYAAVMCTQL (linker 7-14 via Phenylene(1,4-NHCOCH2)2 (inferred); not fully specified (C-terminus)) |  |
|  |  |  |  |  |  |  |  | 0 | 0 | 0 | 0 | 0 | 18 | 13 | 22 | DPAELFCTEAADICMVD (linker 7-14 via Phenylene(1,4-NHCOCH2)2 (inferred)) |  |
|  |  |  |  |  |  |  |  | 0 | 0 | 0 | 0 | 1 | 17 | 7 | 32 | DPAETFCWDAADICMVD (linker 7-14 via Phenylene(1,4-NHCOCH2)2 (inferred)) |  |

Reference: US20240376151A1, “STAPLED PEPTIDES AND METHODS THEREOF” (FOG PHARMACEUTICALS, INC., priority 2022, published 2024)
